Fewer inactive variants are shown than the library holds.
B1: TPR 5TU (parent)
chain: GGAUCUUCUCGAUCUAACAAAAAAGACAAAUCUGCCACAAAGCUUGAGAGCAUCUUCGGAUGCAGAGGCGGCAGCCUUCGGUGGCGCGAUAGCGCCAACGUUCUCAACUAUGACACGCAAAACGCGUGCUCCGUUGAAUGGAGUUUAUCAUG

Variants of: B1
Assay: polymerase ribozyme fitness, log enrichment relative to wild type (log ratio); higher = more active; in vitro selection for triplet polymerase activity
How it was run: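 After PCR construction and transcription, each subunit's mutant library from a heterodimeric triplet polymerase ribozyme was annealed with a biotinylated primer, the partner subunit and triplets. Incubation was frozen, at −7 °C, and extended constructs were gel-excised, bound to streptavidin beads and amplified by RT-PCR, in one selection round done in triplicate. Fitness is the logarithm of a genotype's enrichment divided by that of the wild type, from inverse-variance-weighted replicate averages of Illumina-sequenced inputs and outputs. The base of the logarithm is 2, and genotypes needed ≥10 input reads and ≥1 read per output.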

Variant	polymerase ribozyme fitness (log ratio)
GGAUCUUCUCGAUCUAACAAAAAAGACAAAUCUGCCUCAAAGCUUGAGAGCAUCUUCGGAUGCACAGGCGGCAGCCUUCGGUGGCGCGAUAGCGCCAACGUUCUCAACUUUGACACGCAAAACGCGUGCUCCGUUCAAUGGAGUUUAUCAUG	≤ -4.2
GGAUCUUCUCGAUCUAACACAAAAGACAAAUCUGCCACAAAGCUUGAGAGCAUCUUCGGAUGCAGAGGCGGCAGCCUUCGGUGGAGCGAUAGCGCCAACGUUCUCAACUAUGACACGCAAAACGCCUGCUCCGUUGAAUGGAGUUUAUCAUG	0.52
GGAUCUUCUCGAUCUAAAAUAAAGGGCAUAUCUGCCACAAAGCUUGAGAGCAUCUUAGGAUGCAGAGGCGGCAGCCAUCGGUGGCGCCAUAGCGCCAACGUUCUCAACUAUGACACGCAAAACGCGUGCUCCGUUGAAUGGAGUUUAUCAUG	≤ -4.2
GGAUCUUCUCGAUCUAACAAAAAAGACAAAUCUGCCACAAAGCUUGAGAGCAUCUUCGGAUGCAGAGGCGGCAGCCUUCGGUGGCGCGAUAGCGCCAACGUUCUCAACUAUGACACGCAAAACGCGUGCUCCGUUCAAUGGAGUUUAUCAUG	-2.62
GGAUCUUCUCGAUCUAACAAAACAGACAAAUCUGUCACAAAGCUUGAGAGCAUCUUCGGAUGCAAUGGCGGCAGCAUGCGGUGGCGCGAUAGCGCCAACGUUCUCAACUAUGACACGCAAAACGCGUGCUCCGUUGAAUGGAGUUUAUCAUG	≤ -4.2
GGAUCUUCUCGAUGUAACAAAAAAGACAAUUCUGCAACAAAGCUUGAGAGCAUCAUCGGAUGCAGAGGCGGCCGCCUUCGGUGGUGCGAUAGCGCCAACGUUCUCAACUAUGACACGCGAAACGCGUGCUCCGUUGAAUGGAGUUUAUCAUG	≤ -4.2
GGAUCUUCUCGAUCUAACAAAAAAGACAAAUCUGCCACAAAGCUUGAGAGCAUCUUCGGAUCCAGACGCGGCAGCCUUCGGUGGCGCGAUAGCGCCAACGUUCUCAACUAUGACACGCAAAACGCGUGCUCCGCUGAAUGGAGUUUGUCAUG	≤ -4.2
GGAUCUUCUCGAUCUAACAAAAAAGACAAAUCUGCCACAAUGCUUGAGAGCAUCUUCGGAUGCAGAGGCGGCAGCCUUCGGUGGAGCGAUAGCGCCAACGUUCUCAACUAUGACACGCAAAACGCGUGCUCCGUUGAAUGGAGUUUAUCAUG	-3.35
GGAUCUUCUCGAUCUAACAAAAAAGACAAAUCUGCCACAAAGCUUGAGAGCAUUAUCGGAUGCAGAGGCGGCAGCCUUCGGUGGCGCGAUAGCGCCAUCGUUCUCAACUAUGACACGCAAAACGCGUGCUCCGUUGAAUGGAGAUUAUCAUG	-1.24
GGAUCUUCUCGAUCUAACAAAAAACACAAAUCUGCCACAAAGCUUGAGAGCAUCUUAGGAUGCAGAGGCGGCAGCCUUCGGUAGCUCGAUAGCGCGAACGUUCUCGACUAUGACACGCAAAACGCGGGCUCCGUUGAAUGGAGUUUAUCAUG	≤ -4.2
GGAUCUUCUCGAUCUAACAAAAAAGACAAAUCUGCCACAAAGCUUGAGAGCAUCUUCGGAUGCAGAGGCGGCAGCCUUCGGUGGGGCGAUAGCGCCAACGUUCUCAACUAUGACACGCAAAACGCGUGCUCCGUUGAAUGGAGUUUAUCGUG	-2.67
GGAUCUUCUCGAUCUAACAAAAAAGACAAAUCUGCCACAGAGCUUGAGAGCAUCUUCGGAUGCAGAGGCGGCAGCCUUCGGUGGCUCGAUAGCGCCAACGUUCUCAACUAUGACACGCAGAACGCGUGCUCCGUUGAAUGGAGUUUAUCAUG	-3.99
GGAUCUUCUCGAUCUAACAAAAAAGACAAAUCUGCCACAAAGCUUGAGAGCUUCUUCGGAUGCAGAGGCGGCAGCUUUCGGUGGCGCGAUAGCGCCAACGUUCUCAACUAUGACACGCAAAACGCGUGCUCCGUUGAAUGGAGUUUAUCUUG	-1.19
GGAUCUUCUCGAUCAAACAAAAUAGACAAAUCUGCCACCAAGCUUGUGAGCAUCUUCGGAUGCAGAGGCGGCAGCCUUCGGUGGCGCGAUAGCGCGAACGUUCUCAACUAUGACACGCAAAACGCGUGCUCCGUUGAAUGUAGUUUAUCAUG	≤ -4.2
GGAUCUUCUCGAUCUAACAAAAAAGACAAAUCUGCCACAAACCUUGAGAGCAUCUUCGGAAGCAGAGGCGGCAGGCUUCGGUGGCGCGAUAGAGCCAACGUUCUCAACUAUGACACGCAAAACGCGUGCUCCGUUGAAUGGAGUUUAUCAUG	≤ -4.2
GGAUCUUCUCGAUCUCACAAAGAAGACAAAUCUGCCACAAAGCUUGAGAGCAACUUCGGAUGCAGAGGCGGCAGCCUUCGGUGGCGCGAUAUCGCCAACGUUCUCAACUAUGACACGCAAAACGCGUGCUCCGUUGAAUGGAGUUUAUCAUG	-2.34
GGAUCUUCUCGAUCUAACAAAAAAGACAAAUCUGCCACAAAGCUUGAGAGCAUCUUCGGAUGCGGAGGCGGCAGCCUUCGGUGUCGCGAUAGCGCCAACGUUCUCAACUAUGACACGCAAAACGCGUGCUCCGUUGAAUGGAGUUUAUCAUG	-4.16
GGAUCUUCUCGAUCUUACAAAAAAGCCAUAUCUGCCACAAAGCUUGAGAGCAUCUUCGGAUGCAGAGCCGGCAGCCUUCGGUAGCGCGAUAGCGCCAACGUUCUCAACUAUGACACGCAAAACGCGUGCUCCGUUGAAUGGAGUUUAUCAUG	≤ -4.2
GGAUCUUCUCGAUCUAACAAAAAAGACAAAUCUGCCACAAAGCUUGAGAGCAUCUUCGGAUGCAGAGGCGGCAGCCUUCGGUGGCGCGAUAGCGCCAGCGUUAUCAACUAUGACACGCAAAACGCGUGCUCCGUUGAAUGGAGUUUAUCAUG	-0.961
